T1: HMG1 purified from bovine (calf) thymus (bovine, UniProt P10103 2-215)
T1 construct: also called Calf thymus HMGB1; thymus HMG1
T1 sequence (looked up): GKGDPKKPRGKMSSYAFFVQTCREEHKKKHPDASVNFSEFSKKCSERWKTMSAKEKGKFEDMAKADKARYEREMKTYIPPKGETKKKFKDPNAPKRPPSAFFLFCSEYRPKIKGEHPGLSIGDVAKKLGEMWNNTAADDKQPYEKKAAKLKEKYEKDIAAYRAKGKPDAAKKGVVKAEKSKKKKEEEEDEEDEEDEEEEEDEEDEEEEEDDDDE

T2: HMG2 (UniProt P40673 2-209, limits assumed)
T2 construct: also called HMGB2; HMBG2
T2 sequence (looked up): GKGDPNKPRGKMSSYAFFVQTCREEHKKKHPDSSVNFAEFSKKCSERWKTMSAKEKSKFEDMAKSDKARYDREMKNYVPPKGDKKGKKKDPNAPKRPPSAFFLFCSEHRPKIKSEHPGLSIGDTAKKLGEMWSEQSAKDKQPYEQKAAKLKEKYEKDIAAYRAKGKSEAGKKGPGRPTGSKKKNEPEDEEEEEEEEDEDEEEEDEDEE

T3: recombinant HMG1 purified from E. coli as a calmodulin binding protein (CBP) fusion protein (human, UniProt A9RA84 1-215 (Papio anubis entry))
T3 sequence: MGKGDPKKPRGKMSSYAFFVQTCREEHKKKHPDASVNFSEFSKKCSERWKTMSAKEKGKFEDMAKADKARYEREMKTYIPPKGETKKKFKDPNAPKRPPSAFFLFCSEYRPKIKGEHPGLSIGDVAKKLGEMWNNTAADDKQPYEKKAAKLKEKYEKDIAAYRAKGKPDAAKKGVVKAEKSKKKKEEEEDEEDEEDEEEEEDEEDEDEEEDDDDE

T4: HMG1 B Box peptide amino acids 150-183
T4 peptide: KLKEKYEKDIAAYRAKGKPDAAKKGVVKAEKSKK

B1: anti-HMG1 antibody G4 (antibody, V domains shown)
VH: EVQLLESGGGLVQPGGSLRLSCAASGFTFSWYDMTWVRQAPGKGLEWVSSISPSGGYTKYADSVKGRFTISRDNSKNTLYLQMNSLRAEDTAVYYCTTEFYDYLDVWGKGTTVTVSS
VL: DIQMTQSPGTLSLSPGEGATLSCRASQSVSSTYLAWYQQKPGQAPRLLIYEASKRATGTPARFSGSGSGTDFTLSISSLEPEDFAVYYCQHRHNWPPQWTFGQGTKVEVK
notes: also called ATCC PTA-6258
B2: anti-HMG1 antibody S16 (antibody, V domains shown)
VH: EVQLLESGGGLVQPGGSLRLSCAASGFTFSWYSMLWVRQAPGKGLEWVSYISPSGGFTNYADSVKGRFTISRDNSKNTLYLQMNSLRAEDTAVYYCARWDYNSGWYYDHWGQGTLVTVSS
VL: DIQMTQSPDTLSLSPGERATLSCRASQSVNSRNLAWYQQKPGQAPRLLIYGASTRATGIPDRFSGSVSGTEFTLTISSLQPDDFATYYCQQYNSYFTFGQGTKLEIK
notes: also called ATCC PTA-6259
B3: anti-HMG1 antibody S6 (antibody, V domains shown)
VH: EVQLLESGGGLVQPGGSLRLSCAASGFTFSWYDMSWVRQAPGKGLEWVSRISPSGGYTMYADSVKGRFTISRDNSKNTLYLQMNSLRAEDTAVYYCARLEVGATSGGTAFDIWGQGTMVTVSS
VL: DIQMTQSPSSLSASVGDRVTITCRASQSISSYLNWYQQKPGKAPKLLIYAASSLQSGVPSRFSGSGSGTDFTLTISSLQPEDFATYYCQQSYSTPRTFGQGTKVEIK
notes: also called ATCC PTA-6143
B4: anti-HMG1 antibody S2 (antibody, V domains shown)
VH: EVQLLESGGGLVQPGGSLRLSCAASGFTFSGYMMVWVRQAPGKGLEWVSRISPSGGQTGYADSVKGRFTISRDNSKNTLYLQMNSLRAEDTAVYYCAREEGGSYGAFDIWGQGTMVTVSS
VL: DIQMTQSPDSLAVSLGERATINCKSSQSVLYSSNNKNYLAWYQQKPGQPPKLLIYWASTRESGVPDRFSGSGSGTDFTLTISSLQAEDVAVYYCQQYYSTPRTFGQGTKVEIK
notes: also called ATCC PTA-6142

Biological target: T1, HMG1 purified from bovine (calf) thymus
Assay: ELISA, wells coated with calf thymus HMGB1 at 5 ug/mL, antibody at 10 ug/mL, anti-human kappa/lambda-HRP, OD 490
In short: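 Calf thymus HMGB1 or HMGB2 coated at 5 ug/mL in 10 mM PBS pH 7.2 overnight at 4 °C; anti-HMGB1 antibody added at 10 ug/mL final in PBS + 1% BSA, 1 h at room temperature. Detection with HRP anti-human kappa plus lambda (1:1000, 1 h), OPD substrate 20-30 min in the dark, H₂SO₄ stop, absorbance 490 nm.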

Binder	binding result
B1	binds
B2	binds
B3	binds
B4	binds

Biological target: T2, HMG2
Assay: ELISA, wells coated with HMGB2 at 5 ug/mL, OD 490
Procedure: Binding to HMG1 vs. HMG2: Ultra high-binding ELISA plates (ThermoLab systems, #3855) were coated with either 5 ug/mL of Calf thymus HMGB1 or HMBG2 diluted in 10 mM Phosphate buffered saline (PBS), pH 7.2 and incubate overnight at 4 degrees. The plates were washed twice with Ca and Mg free PBS and 100 microliters of anti-HMGB1 antibody diluted in 10 mM PBS, pH 7.2+1% bovine serum albumin (BSA) to a final concentration of 10 ug/mL was added to each well and the plates were incubated 1 hour at room temperature. The wells were washed three times with 100 μl of PBS, pH 7.2. HRP labeled goat-anti-human IgG Kappa-chain (KPL, #14-10-10) and goat-anti-human IgG Lambda-chain (KPL, #14-10-11) were diluted in 10 mM PBS+1% BSA 1:1000 and 100 μl were added to each well and incubated for 1 hour at room temperature. The wells were then washed three times with 100 μl of PBS, pH 7.2. OPD substrate (Pierce chemical company, #34006) was prepared following the manufacturers instructions and 100 μl of prepared substrate was added to each well and the plates incubated at room temperature in the dark for 20-30 minutes. The reaction was stopped with the addition of 100 μl of 2M H₂SO₄, and the plates read on a plate reader at a wavelength of 490 nm.

Binder	binding result
B1	no binding (tested: 10 ug/mL (not on the sheet))
B3	no binding (tested: 10 ug/mL (not on the sheet))
B4	no binding (tested: 10 ug/mL (not on the sheet))

Biological target: T3, recombinant HMG1 purified from E. coli …
Assay: cell-based or functional assay

Binder	IC50, inhibition of rHMG1 stimulated IL-1β release from human PBMC [µg/mL]	IC50, inhibition of rHMG1 stimulated IL-6 release from human PBMC [nM]	IC50, inhibition of rHMG1 stimulated IL-12 release from human PBMC [µg/mL]	IC50, inhibition of rHMG1 stimulated TNF-α release from human PBMC [µg/mL]	IC50, inhibition of HMG1 stimulated NO release from macrophages [µg/mL]
B1	5.01	0.9	0.715	5.51	
B2	6.05	0.56	1.24	1.44	
B3	0.0232	0.174		0.0182	4.15
B4	0.22	0.163		0.0642	

Biological target: T4, HMG1 B Box peptide amino acids 150-183
Assay: ELISA, wells coated with HMG1 B Box peptide 150-183 at 10 ug/ml
In short: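 Biotinylated peptides captured on avidin-coated wells (1% BSA block, 30 min, room temperature), then antibodies added in serial dilution from 10 μg/ml; for the coated-peptide format, plates blocked with 4% milk/PBS 1 h at 37 °C. Bound antibody detected with anti-human IgG-HRP and TMB, absorbance at 450 nm.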

Binder	binding result
B1	no binding (tested: 10 ug/ml (log 1.00))
B3	no binding (tested: 10 ug/ml (log 1.00))
B4	no binding (tested: 10 ug/ml (log 1.00))

Biological target: T3, recombinant HMG1 purified from E. coli …
Assay: BIAcore, mAb immobilized, HMG1 injected, steady-state model
In short: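 Each mAb amine-coupled to a CM5 chip beside a reference flow cell. Twofold serial dilutions of recombinant HMG1 were injected at slow flow, and surfaces regenerated with 1M NaCl-50 mM NaOH. Affinity was derived from binding curves fitted to a steady-state model.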

Binder	Kd [nM]
B1	30
B2	23
B3	39
B4	36

From patent US20080311122A1 (AstraZeneca / MedImmune, published 2008)
